The target of experiment [1] is PhiV-1 gp19 terminase with StrepTag (gp19-StrepTag) (coliphage PhiV-1). The experiment is described as follows: tandem affinity purification (Ni-NTA, Strep-Tactin), Superose 6 Increase peak, SDS-PAGE band intensity.
Experiment [2] deals with PhiV-1 gp19 large terminase subunit (coliphage PhiV-1). The experiment is described as follows: cryo-EM structure of the SeAvs3-terminase complex.
Experiment [3] has as its target SeAvs3 from Salmonella enterica NCTC13175 with C-terminal 6xHis tag (purified recombinant) (Salmonella enterica NCTC13175). The experiment is described as follows: cryo-EM; interface between adjacent STAND ATPase domains in the terminase-bound SeAvs3 tetramer.
Experiment [4] concerns the target PhiV-1 gp8 portal protein (coliphage PhiV-1). The experiment is described as follows: cell-based or functional assay.
In experiment [5] the target is PhiV-1 gp19 large terminase subunit (coliphage PhiV-1). The experiment is described as follows: cell-based or functional assay.
For experiment [6], the target named is PhiV-1 gp8 portal protein (coliphage PhiV-1). The experiment is described as follows: cryo-EM structure of the EcAvs4-portal complex.
Experiment [7] addresses EcAvs4 Q63A/K65A with internal TwinStrep tag between residues 114 and 115 (cryo-EM construct) (Escherichia coli NCTC11132). The experiment is described as follows: cryo-EM; interface between adjacent STAND ATPase domains in the portal-bound EcAvs4 tetramer.

On to “SeAvs3 from Salmonella enterica NCTC13175 with C-terminal 6xHis tag (purified recombinant) (receptor)”, for which the ratio of SeAvs3 and gp19 in the complex peak (SeAvs3:gp19 ratio) in experiment [1] amounted to 1. Also, the buried solvent-accessible surface area in experiment [2] was over 3700 Å2. The buried surface area in experiment [3] was found to be 436 Å^2.

As to “SeAvs3 from Salmonella enterica NCTC13175 expressed in E. coli (genetic assays) (receptor)”, the results for the Abundance relative to E. coli NovaBlue control (PhiV-1 fragment screen, deep sequencing of surviving plasmids) in experiment [4] and in experiment [5] were 0.65 and under 0.0001, respectively.

In the case of “EcAvs4 Q63A/K65A with internal TwinStrep tag between residues 114 and 115 (cryo-EM construct) (receptor)”, in experiment [6], the buried solvent-accessible surface area came out at 5800 Å2. The substance also showed a buried surface area in experiment [7] of 1230 Å^2.

On to “EcAvs4 from Escherichia coli NCTC11132 expressed in E. coli (genetic assays) (receptor)”, for which the Abundance relative to E. coli NovaBlue control (PhiV-1 fragment screen, deep sequencing of surviving plasmids) in experiment [4] is under 0.0001; in experiment [5] it was 0.11.

For the origin of these results see patent publication US20250243471A1.
